Test results reported in patent US20130089556A1 (SAMSUNG ELECTRONICS, published 2013).
Like-named read-outs stand apart in the source and are kept apart here.

Experiments:
Assay in all cases: SPR (printed 'Biocare'), antibody immobilised on CM5 chip, c-Met injected at 100-0.39 nM
[1] = target: T1, human c-Met protein (R&D Systems) (human, UniProt P08581 25-932, limits assumed)
T1 construct: also called antigen
Experimental: (§1) Each of antibodies was immobilized to about 80˜110 RU on a CM5 chip, and the c-Met protein (which is an antigen) was injected at nine different concentrations within a range of about 100 nM to about 0.39 nM at a rate of 30 μl/min to obtain kₒₙ and koff values as illustrated in Table 2. KD values were calculated from the kₒₙ and koff values.

[2] = target: T1, human c-Met protein (R&D Systems); remark: listed apart in the source
Experimental: as §1, with “antibodies shown in Table 4” for “antibodies”, “chip. The” for “chip, and the”, “protein” for “protein (which is an antigen)”, “4.” for “2.”

[3] = target: T1, human c-Met protein (R&D Systems); remark: listed apart in the source
Experimental: as §1, with “80-110” for “80˜110”, “protein” for “protein (which is an antigen)”, “3.” for “2.”

T1 sequence (P08581 25-932 limits assumed): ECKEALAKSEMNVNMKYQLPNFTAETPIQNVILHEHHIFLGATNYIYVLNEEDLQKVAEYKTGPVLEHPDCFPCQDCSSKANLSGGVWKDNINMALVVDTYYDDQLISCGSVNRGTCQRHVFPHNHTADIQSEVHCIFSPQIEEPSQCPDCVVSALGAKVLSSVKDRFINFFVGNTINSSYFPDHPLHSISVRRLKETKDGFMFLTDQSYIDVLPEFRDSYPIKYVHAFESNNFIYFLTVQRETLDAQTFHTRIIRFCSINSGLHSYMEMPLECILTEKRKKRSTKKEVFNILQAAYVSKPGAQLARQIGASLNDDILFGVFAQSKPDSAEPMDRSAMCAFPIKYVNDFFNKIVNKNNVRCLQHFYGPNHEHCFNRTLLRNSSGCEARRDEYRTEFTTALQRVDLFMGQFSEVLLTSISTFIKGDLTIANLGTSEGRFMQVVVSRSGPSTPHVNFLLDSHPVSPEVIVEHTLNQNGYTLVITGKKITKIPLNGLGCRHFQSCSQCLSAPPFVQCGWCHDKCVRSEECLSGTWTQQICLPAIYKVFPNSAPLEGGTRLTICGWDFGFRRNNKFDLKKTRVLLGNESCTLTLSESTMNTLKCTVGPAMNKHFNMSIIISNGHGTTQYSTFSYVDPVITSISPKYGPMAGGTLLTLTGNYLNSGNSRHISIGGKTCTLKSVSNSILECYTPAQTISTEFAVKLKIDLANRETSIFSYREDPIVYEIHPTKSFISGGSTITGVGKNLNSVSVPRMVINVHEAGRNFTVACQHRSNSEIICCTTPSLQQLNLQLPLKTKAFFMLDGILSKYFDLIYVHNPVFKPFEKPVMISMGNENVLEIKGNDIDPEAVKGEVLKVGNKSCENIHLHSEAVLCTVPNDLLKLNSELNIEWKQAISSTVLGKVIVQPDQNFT

B1: humanized antibody huAbF46-H1 (antibody, human IgG1, kappa, V domains shown)
VH: EVQLVESGGGLVQPGGSLRLSCAASGFTFTDYYMSWVRQAPGKGLEWLGFIRNKANGYTTEYSASVKGRFTISRDNSKNSLYLQMNSLKTEDTAVYYCARDNWFAYWGQGTLVTVSS
VL: DIVMTQSPDSLAVSLGERATINCKSSQSLLASGNQNNYLAWHQQKPGQPPKMLIIWASTRVSGVPDRFSGSGSGTDFTLTISSLQAEDVAVYYCQQSYSAPLTFGGGTKVEIKR
notes: also called hAbF46-H1
[1]
  Kd: 1.89 to 1.97 nM
  koff: 0.000655 s⁻¹
  kon: 346000 M⁻¹ s⁻¹
[2]
  Kd: 1.89 nM
  koff: 0.000655 s⁻¹
  kon: 346000 M⁻¹ s⁻¹

B2: huAbF46-H4-U7-HC6 (antibody)
heavy: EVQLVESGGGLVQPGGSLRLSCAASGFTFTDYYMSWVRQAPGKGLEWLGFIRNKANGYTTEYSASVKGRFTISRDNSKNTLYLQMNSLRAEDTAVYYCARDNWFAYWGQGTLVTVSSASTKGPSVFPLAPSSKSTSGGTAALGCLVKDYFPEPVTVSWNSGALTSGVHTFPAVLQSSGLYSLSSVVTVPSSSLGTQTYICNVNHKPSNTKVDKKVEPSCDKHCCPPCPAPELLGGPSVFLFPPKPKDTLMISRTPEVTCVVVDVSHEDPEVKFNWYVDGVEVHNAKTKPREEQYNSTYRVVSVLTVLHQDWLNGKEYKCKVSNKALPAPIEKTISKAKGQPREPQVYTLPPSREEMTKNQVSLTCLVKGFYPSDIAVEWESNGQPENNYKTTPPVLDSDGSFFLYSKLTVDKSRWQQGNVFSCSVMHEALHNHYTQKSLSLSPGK
light: DIQMTQSPSSLSASVGDRVTITCKSSQSLLASGNQNNYLAWHQQKPGKAPKMLIIWASTRVSGVPSRFSGSGSGTDFTLTISSLQPEDFATYYCQQSYSAPLTFGQGTKVEIKRTVAAPSVFIFPPSDEQLKSGTASVVCLLNNFYPREAKVQWKVDNALQSGNSQESVTEQDSKDSTYSLSSTLTLSKADYEKHKVYACEVTHQGLSSPVTKSFNRGEC
[2]
  Kd: 3.74 nM
  koff: 0.000981 s⁻¹
  kon: 263000 M⁻¹ s⁻¹

B3: chimeric antibody chAbF46 (antibody, human IgG1)
heavy: not shown
light: DILMTQSPSSLTVSAGEKVTMSCKSSQSLLASGNQNNYLAWHQQKPGRSPKMLIIWASTRVSGVPDRFIGSGSGTDFTLTINSVQAEDLAVYYCQQSYSAPLTFGAGTKLELKRTVAAPSVFIFPPSDEQLKSGTASVVCLLNNFYPREAKVQWKVDNALQSGNSQESVTEQDSKDSTYSLSSTLTLSKADYEKHKVYACEVTHQGLSSPVTKSFNRGEC
notes: Mouse AbF46 variable regions on human IgG1 constant regions
[1]
  Kd: 1.01 to 1.42 nM
  koff: 0.000367 s⁻¹
  kon: 363000 M⁻¹ s⁻¹
[3]
  Kd: 1.01 nM
  koff: 0.000367 s⁻¹
  kon: 363000 M⁻¹ s⁻¹

B4: chAbF46-U6-HC8 (antibody, human IgG1)
heavy: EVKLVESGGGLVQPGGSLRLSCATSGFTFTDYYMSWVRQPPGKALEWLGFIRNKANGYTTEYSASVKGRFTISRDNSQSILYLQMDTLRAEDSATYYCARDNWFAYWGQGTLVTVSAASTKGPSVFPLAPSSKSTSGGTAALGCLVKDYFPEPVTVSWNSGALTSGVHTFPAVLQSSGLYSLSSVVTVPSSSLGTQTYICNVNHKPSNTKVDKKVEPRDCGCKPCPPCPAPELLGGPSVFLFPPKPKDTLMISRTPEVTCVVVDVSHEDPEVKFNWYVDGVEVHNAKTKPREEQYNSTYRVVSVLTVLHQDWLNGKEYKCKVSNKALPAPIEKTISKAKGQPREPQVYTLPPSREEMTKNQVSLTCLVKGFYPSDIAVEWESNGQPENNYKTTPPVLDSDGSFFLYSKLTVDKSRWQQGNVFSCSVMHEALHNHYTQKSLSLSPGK
light: DILMTQSPSSLTVSAGEKVTMSCKSSQSLLASGNQNNYLAWHQQKPGRSPKMLIIWASTRVSGVPDRFIGSGSGTDFTLTINSVQAEDLAVYYCQQSYSAPLTFGAGTKLELKRTVAAPSVFIFPPSDEQLKSGTASVVCLLNNFYPREAKVQWKVDNALQSGNSQESVTEQDSKDSTYSLSSTLTLSKADYEKHKVYACEVTHQGLSSPVTKSFNRGEC
[3]
  Kd: 1.34 nM
  koff: 0.000626 s⁻¹
  kon: 469000 M⁻¹ s⁻¹

B5: chAbF46-U7-HC6 (antibody, human IgG1)
heavy: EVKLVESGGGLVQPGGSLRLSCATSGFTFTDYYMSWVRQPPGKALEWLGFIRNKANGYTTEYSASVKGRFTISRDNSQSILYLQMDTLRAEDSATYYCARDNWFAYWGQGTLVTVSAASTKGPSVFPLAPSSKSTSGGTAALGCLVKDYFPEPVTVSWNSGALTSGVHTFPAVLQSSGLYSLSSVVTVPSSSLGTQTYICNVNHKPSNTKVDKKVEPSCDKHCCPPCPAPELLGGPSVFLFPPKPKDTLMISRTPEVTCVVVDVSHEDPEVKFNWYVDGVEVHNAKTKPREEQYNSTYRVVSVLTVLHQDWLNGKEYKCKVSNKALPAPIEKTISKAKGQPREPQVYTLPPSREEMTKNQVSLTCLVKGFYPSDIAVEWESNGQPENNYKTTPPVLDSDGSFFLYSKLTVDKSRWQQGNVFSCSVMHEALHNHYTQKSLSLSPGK
light: DILMTQSPSSLTVSAGEKVTMSCKSSQSLLASGNQNNYLAWHQQKPGRSPKMLIIWASTRVSGVPDRFIGSGSGTDFTLTINSVQAEDLAVYYCQQSYSAPLTFGAGTKLELKRTVAAPSVFIFPPSDEQLKSGTASVVCLLNNFYPREAKVQWKVDNALQSGNSQESVTEQDSKDSTYSLSSTLTLSKADYEKHKVYACEVTHQGLSSPVTKSFNRGEC
[3]
  Kd: 1.66 nM
  koff: 0.000862 s⁻¹
  kon: 518000 M⁻¹ s⁻¹

B6: chAbF46-U3-HC9 (antibody, human IgG1)
heavy: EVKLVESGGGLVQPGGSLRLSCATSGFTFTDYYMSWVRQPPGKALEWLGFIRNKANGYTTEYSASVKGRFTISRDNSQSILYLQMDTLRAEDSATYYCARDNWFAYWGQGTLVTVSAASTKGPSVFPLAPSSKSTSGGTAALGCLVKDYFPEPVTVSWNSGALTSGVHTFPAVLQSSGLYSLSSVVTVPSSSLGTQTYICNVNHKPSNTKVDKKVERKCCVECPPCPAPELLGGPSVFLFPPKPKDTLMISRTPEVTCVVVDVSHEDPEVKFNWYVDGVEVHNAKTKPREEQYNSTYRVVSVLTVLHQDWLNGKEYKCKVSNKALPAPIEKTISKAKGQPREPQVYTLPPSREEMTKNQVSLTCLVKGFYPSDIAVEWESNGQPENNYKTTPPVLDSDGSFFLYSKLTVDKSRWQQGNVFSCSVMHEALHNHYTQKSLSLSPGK
light: DILMTQSPSSLTVSAGEKVTMSCKSSQSLLASGNQNNYLAWHQQKPGRSPKMLIIWASTRVSGVPDRFIGSGSGTDFTLTINSVQAEDLAVYYCQQSYSAPLTFGAGTKLELKRTVAAPSVFIFPPSDEQLKSGTASVVCLLNNFYPREAKVQWKVDNALQSGNSQESVTEQDSKDSTYSLSSTLTLSKADYEKHKVYACEVTHQGLSSPVTKSFNRGEC
[3]
  Kd: 1.38 nM
  koff: 0.000554 s⁻¹
  kon: 400000 M⁻¹ s⁻¹

B7: chAbF46-U8-HC5 (antibody, human IgG1)
heavy: not shown
light: DILMTQSPSSLTVSAGEKVTMSCKSSQSLLASGNQNNYLAWHQQKPGRSPKMLIIWASTRVSGVPDRFIGSGSGTDFTLTINSVQAEDLAVYYCQQSYSAPLTFGAGTKLELKRTVAAPSVFIFPPSDEQLKSGTASVVCLLNNFYPREAKVQWKVDNALQSGNSQESVTEQDSKDSTYSLSSTLTLSKADYEKHKVYACEVTHQGLSSPVTKSFNRGEC
[3]
  Kd: 1.32 nM
  koff: 0.000678 s⁻¹
  kon: 515000 M⁻¹ s⁻¹

B8: chAbF46-U6-HC7 (antibody, human IgG1)
heavy: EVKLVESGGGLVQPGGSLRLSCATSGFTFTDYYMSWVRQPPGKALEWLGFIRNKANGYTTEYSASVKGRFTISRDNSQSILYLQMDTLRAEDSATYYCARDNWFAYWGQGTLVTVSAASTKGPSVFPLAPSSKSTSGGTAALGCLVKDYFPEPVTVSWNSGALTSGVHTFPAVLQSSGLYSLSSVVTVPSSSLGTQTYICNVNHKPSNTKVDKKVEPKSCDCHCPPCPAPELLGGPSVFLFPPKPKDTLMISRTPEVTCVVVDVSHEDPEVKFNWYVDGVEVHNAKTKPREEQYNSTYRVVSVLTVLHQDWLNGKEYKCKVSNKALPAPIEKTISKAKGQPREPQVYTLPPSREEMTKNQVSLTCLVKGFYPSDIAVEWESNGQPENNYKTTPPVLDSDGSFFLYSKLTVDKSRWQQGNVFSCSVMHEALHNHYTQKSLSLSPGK
light: DILMTQSPSSLTVSAGEKVTMSCKSSQSLLASGNQNNYLAWHQQKPGRSPKMLIIWASTRVSGVPDRFIGSGSGTDFTLTINSVQAEDLAVYYCQQSYSAPLTFGAGTKLELKRTVAAPSVFIFPPSDEQLKSGTASVVCLLNNFYPREAKVQWKVDNALQSGNSQESVTEQDSKDSTYSLSSTLTLSKADYEKHKVYACEVTHQGLSSPVTKSFNRGEC
[3]
  Kd: 1.63 nM
  koff: 0.000614 s⁻¹
  kon: 376000 M⁻¹ s⁻¹

B9: humanized antibody huAbF46-H4 (antibody, human IgG1, kappa)
heavy: not shown
light: DIQMTQSPSSLSASVGDRVTITCKSSQSLLASGNQNNYLAWHQQKPGKAPKMLIIWASTRVSGVPSRFSGSGSGTDFTLTISSLQPEDFATYYCQQSYSAPLTFGQGTKVEIKRTVAAPSVFIFPPSDEQLKSGTASVVCLLNNFYPREAKVQWKVDNALQSGNSQESVTEQDSKDSTYSLSSTLTLSKADYEKHKVYACEVTHQGLSSPVTKSFNRGE
notes: also called hAbF46-H4
[1]
  Kd: 2.05 to 2.39 nM
  koff: 0.000696 s⁻¹
  kon: 339000 M⁻¹ s⁻¹
[2]
  Kd: 2.39 nM
  koff: 0.000802 s⁻¹
  kon: 336000 M⁻¹ s⁻¹
